Assay results reported in the DeepSol protein solubility set.

Assay: soluble on expression in E. coli; label from the status in PepcDB or PDB records

Row | Sequence | soluble on expression in E. coli
1 | MTHVTLRSEFETLIDPYAPVAQVGTGFDFTEGPIWHPIDHYLLFSDMPGDVRRRWDARRGMAEVKRPSNKCNGMTYDAELNLIVCEHATSSLIRERPDGRREVLASHFGGQELNSPNDVCVHSSGAIYFSDPWYGRMPVYGVERPRQLGFQGVYRVMPGGEPKLVVDRNLFDQPNGLCFSPDERLLYVNDTVQALIRVFDVNADGTLSNARVFASSIKSELEPGLPDGMKCDQHGNVWVTAPGGVWVYSPRGELLGKVRVPELVANLAWGGPDFRTLYLTSTHSVYAIPTRVGPRHEPYMSGRRGGAGASAGPAAAAPILTDGEMRLDPQRCAMIIQDLQNDVIMDGGAFDGSGAPAHAKQQHVVENVRRLAEAARARGVAIIHVWFVVEPGAPGVTLNAPLFEGLVDSKAMVRGSWGAAPVSGLEPRPGDFVVEKMRMSAWEGTRLETILKATGRDMIINTGAWTNMSVEHTARTGADKGYFMIVPEDCCSTMNADWHSASINFAMQNVAIVTRADAVIRALGLEHHHHHH | not soluble
2 | MTIEDLQAFMKREFPQLGEAFEIVTVDEGSATMRLHADAQHLRPGGTVSGPSLFALADVAAYAAILAHIGPVALAVTTNLNINFLRKPSPGTVEAVAHLLKLGKRLAVLDISLTDGANGELVAHATATYSIPPRLEHHHHHH | soluble
3 | MTIIINMRSGVDEVKLRIAAKLIREGKLVAFPTETVYGLGADALNERAVRRIFEAKGRPADNPLILHIAKFSQVYELAREVPEEAKVLVERFWPGPLTIVLPRKDVVPDVTTGGLDTVAIRMPANEIALKLIELSGKPIAAPSANISGKPSPTSAEHVADDFYGKIECIIDGGETRIGVESTVIDLTEHPPVLLRPGGLPLEEIEKVIGKVRIHPAVFGKKVDTPKSPGMKYKHYAPNAEVIVVEGPREKVKGKITELVKELKERGKKVGVIGSESYNADEFFFLGSSVEEVAKNLFKALRYMDKAGVDVVIAEGVEERGLGLAVMNRLRKASGYKIVKA | soluble
4 | MTIQLINESSNTAKFQQICEKWQLVHDKSASLALVLTDTRLELRKLDEAKLGAIAVNFVDGTLAHRRKFGGGRGEAIAKAVGIKGNYLPSVIDATAGLGRDAFVLAAIGCKVTLVERHPVIAALLEDGLTRAYLDAEIGEFMQQRMQLANVHNIAQLDTTTQSADVVYLDPMYPHKQKSALVKKEMRVFQHLVGADLDADQFLLPAKALATKRVVVKRPDYAPPLAEQHPSFSQKTKNHRFDIYLSPLQKRLEHHHHHH | soluble
5 | MTISELLQYCMAKPGAEQSVHNDWKATQIKVEDVLFAMVKEVENRPAVSLKTSPELAELLRQQHSDVRPSRHLNKAHWSTVYLDGSLPDSQIYYLVDASYQQAVNLLPEEKRKLLVQL | not soluble
6 | MTIWEISEKADYIAQRHRRLQDQWHIYCNSLVQGITLSKARLHHAMSCAPDKELCFVLFEHFRIYVTLADGFNSHTIEYYVETKDGEDKQRIAQAQLSIDGMIDGKVNIRDREQVLEHYLEKIAGVYDSLYTAIENNVPVNLSQLVKGQSPAA | soluble
7 | MTKDILILAVETSCDETSVSVIKNGRDILSNTVLSQIESHKRFGGVVPEVASRHHVEGITATINEALGDADVSIEDIDAIAVTEGPGLIGALLIGVNAAKALAFAYDKPLIPVHHIAGHIYANHIEEPLTFPLIALIVSGGHTELVYMKDHLSFEVIGETRDDAVGEAYDKVARTIGLNYPGGPQVDRLAAEGEDTYSFPRVWLDKDSYDFSFSGLKSAVINQLHNQRQKNIPIIEANVATSFQNSVVEVLTFKAIQACKEYGVQRLIVAGGVASNKGLRQSLADQCKVNDIQLTIPSPKLCTDNAAMIGVAGHYLYQQGRFADLALNGHSNIDLEEYSAE | not soluble
8 | MTKEEIIKPENLVYKKPTLMNDNPMHYCPGCSHGVVHKLIAEVIEEMGMEDKAIGVSPVGCAVFAYNYLDIDWQEAAHGRAPAVATAIKRLWPGRLVFTYQGDGDLACIGTAETIHALNRGENITIIFINNAIYGMTGGQMAPTTLVGMKTATCPYGRDVAIHGYPLKMTEIAATLEGTAYVTRQAVHTVPAIRKAKKAIRKAFENSMNGKGSNLVEIVSTCNSGWKMTPQASNDWMVEHMFPFYPLGDLKDKE | not soluble
9 | MTKMSITVNQTVLHQLVKNVDGDSIKMESVLRDELLSITPEVEQMMLQLHQSYQNKAKAFGVFQEKSIFAQHLNRLLEQEIEFLGFSQYSTKLLADELGKYNFAESGTLILCQYNFLATDYLFIALLDSRHSMLVDEHLDIRRTEYLDITQFDIAARINLTDLQVNANSNRYLTFIKGRVGRKISDFFMDFLGAEEGLNPQVQNQCLLQAVSDYCDQGELNKEQTQAVKKQVFEYCKGQLSNGNNIELRELSDSLPTLNEQPFVVFTEKQNYGLEESIPPIRSTLKSLTKFSGSGKGVTLSFDAELLNTRIQWDPMTDTLTIKGLPPNLKDQLQKALKSEN | not soluble
